From the supplement of paper PMC11246515
± gives the standard deviation of the averaged measurements.

Assay: total protein half-life in vivo (active degradation + dilution); higher = more stable protein
[1] = E. coli NCM3722 delta-clpP, growth: N-lim chemostat, doubling time 6 h
[2] = E. coli NCM3722 delta-hslV, growth: N-lim chemostat, doubling time 6 h
[3] = E. coli NCM3722 delta-lon, growth: N-lim chemostat, doubling time 6 h
[4] = E. coli NCM3722 delta-smpB, growth: N-lim chemostat, doubling time 6 h
[5] = wild type E. coli NCM3722, growth: C-lim chemostat, doubling time 3 h
[6] = wild type E. coli NCM3722, growth: C-lim chemostat, doubling time 6 h
[7] = wild type E. coli NCM3722, growth: C-lim chemostat, doubling time 12 h
[8] = wild type E. coli NCM3722, growth: N-lim chemostat, doubling time 6 h
[9] = wild type E. coli NCM3722, growth: N-lim chemostat, doubling time 12 h
[10] = wild type E. coli NCM3722, growth: P-lim chemostat, doubling time 6 h
[11] = wild type E. coli NCM3722, growth: P-lim chemostat, doubling time 12 h
[12] = E. coli NCM3722 delta-clpP delta-lon delta-hslV, growth: N-lim chemostat, doubling time 6 h

Sequence | total protein half-life in vivo [1] | total protein half-life in vivo [2] | total protein half-life in vivo [3] | total protein half-life in vivo [4] | total protein half-life in vivo [5] | total protein half-life in vivo [6] | total protein half-life in vivo [7] | total protein half-life in vivo [8] | total protein half-life in vivo [9] | total protein half-life in vivo [10] | total protein half-life in vivo [11] | total protein half-life in vivo [12]
MAGWFELSKSSDNQFRFVLKAGNGETILTSELYTSKTSAEKGIASVRSNSPQEERYEKKTASNGKFYFNLKAANHQIIGSSQMYATAQSRETGIASVKANGTSQTVKDNT | 5.5 ± 0.46 h | 6 ± 0.94 h | 6.31 ± 1.2 h | 5.48 ± 0.5 h | 3.2 ± 0.24 h | 5.83 ± 0.21 h | 11.2 ± 0.74 h | 5.24 ± 0.059 h | 9.51 ± 0.29 h | 5.54 ± 0.092 h | 11 ± 0.41 h | –
MRYPVTLTPAPEGGYMVSFVDIPEALTQGETVAEAMEAAKDALLTAFDFYFEDNELIPLPSPLNSHDHFIEVPLSVASKVLLLNAFLQSEITQQELARRIGKPKQEITRLFNLHHATKIDAVQLAAKALGKELSLVMV | – | – | – | – | – | – | – | – | – | 1.45 h | 3.2 ± 0.94 h | –
MKTPLVTREGYEKLKQELNYLWREERPEVTKKVTWAASLGDRSENADYQYNKKRLREIDRRVRYLTKCLENLKIVDYSPQQEGKVFFGAWVEIENDDGVTHRFRIVGYDEIFGRKDYISIDSPMARALLKKEVGDLAVVNTPAGEASWYVNAIEYVKP | 3.85 ± 0.086 h | 3.36 ± 0.21 h | 4.34 ± 0.27 h | 3.07 ± 0.3 h | 2.83 ± 0.18 h | 4.63 ± 0.26 h | 7.33 ± 1.7 h | 3.48 ± 0.33 h | 5.226 ± 0.025 h | 4.65 ± 0.57 h | 8.01 ± 0.72 h | 4.94 ± 0.26 h
MTQVAKKILVTCALPYANGSIHLGHMLEHIQADVWVRYQRMRGHEVNFICADDAHGTPIMLKAQQLGITPEQMIGEMSQEHQTDFAGFNISYDNYHSTHSEENRQLSELIYSRLKENGFIKNRTISQLYDPEKGMFLPDRFVKGTCPKCKSPDQYGDNCEVCGATYSPTELIEPKSVVSGATPVMRDSEHFFFDLPSFSEMLQAWTRSGALQEQVANKMQEWFESGLQQWDISRDAPYFGFEIPNAPGKYFYVWLDAPIGYMGSFKNLCDKRGDSVSFDEYWKKDSTAELYHFIGKDIVYFHSLFWPAMLEGSNFRKPSNLFVHGYVTVNGAKMSKSRGTFIKASTWLNHFDADSLRYYYTAKLSSRIDDIDLNLEDFVQRVNADIVNKVVNLASRNAGFINKRFDGVLASELADPQLYKTFTDAAEVIGEAWESREFGKAVREIMALADLANRYVDEQAPWVVAKQEGRDADLQAICSMGINLFRVLMTYLKPVLPKLTERAEAFLNTELTWDGIQQPLLGHKVNPFKALYNRIDMRQVEALVEASKEEVKAAAAPVTGPLADDPIQETITFDDFAKVDLRVALIENAEFVEGSDKLLRLTLDLGGEKRNVFSGIRSAYPDPQALIGRHTIMVANLAPRKMRFGISEGMVMAAGPGGKDIFLLSPDAGAKPGHQVK | 4.18 ± 0.33 h | 4.16 ± 0.055 h | 4.3651 ± 0.0038 h | 4.17 ± 0.25 h | 3.09 ± 0.24 h | 5.54 ± 0.16 h | 9.62 ± 0.28 h | 4.1 ± 0.34 h | 6.3 ± 0.071 h | 5.51 ± 0.33 h | 11.4 ± 0.34 h | 4.5 ± 0.63 h
MKRLIVGISGASGAIYGVRLLQVLRDVTDIETHLVMSQAARQTLSLETDFSLREVQALADVTHDARDIAASISSGSFQTLGMVILPCSIKTLSGIVHSYTDGLLTRAADVVLKERRPLVLCVRETPLHLGHLRLMTQAAEIGAVIMPPVPAFYHRPQSLDDVINQTVNRVLDQFAITLPEDLFARWQGA [P0AG03] | 4.35 ± 0.49 h | 4.3 ± 0.56 h | 4.77 ± 0.86 h | 4.678 ± 0.041 h | 3.22 ± 0.35 h | 6.52 ± 0.94 h | 11.2 ± 1.5 h | 4.09 ± 0.35 h | 7.54 ± 1 h | 5.53 ± 0.22 h | 11.9 ± 0.56 h | 5.38 ± 0.31 h
MQERHTEQDYRALLIADTPIIDVRAPIEFEHGAMPAAINLPLMNNDERAAVGTCYKQQGSDAALALGHKLVAGEIRQQRMDAWRAACLQNPQGILCCARGGQRSHIVQSWLHAAGIDYPLVEGGYKALRQTAIQATIELAQKPIVLIGGCTGSGKTLLVQQQPNGVDLEGLARHRGSAFGRTLQPQLSQASFENLLAAEMLKTDARQNLRLWVLEDESRMIGSNHLPECLRERMTQAAIAVVEDPFEIRLERLNEEYFLRMHHDFTHAYGDEQGWQEYCEYLHHGLSAIKRRLGLQRYNELAARLDAALTTQLTTGSTDGHLAWLVPLLEEYYDPMYRYQLEKKAEKVVFRGEWAEVAEWVKAR | 4.43 ± 0.057 h | 4.35 ± 0.77 h | 4.417 ± 0.0075 h | 3.75 ± 0.5 h | 3.16 ± 0.1 h | 5.87 ± 0.98 h | 10.2 ± 1.6 h | 4.54 ± 0.24 h | 7.414 ± 0.067 h | 5.64 ± 0.47 h | – | 4.83 ± 0.89 h
MKILRWLFALVMLIATTEAMAAGHSVDVYYGYNGDSRNIATFNLKIMMPSAVYVGEYKSSQWLMTGEILQNVSWSGPPPAPSVKLIGYHQNINKASCPGLPSGWNCGYYTFEVIVSAEIESYFSCPWLVIMNDSEASPGGVTYQGPDSHDTICPSVSVQPYDVSWNENYVSKSKLLTLQSTGGVVEKTLSTYLMKDGKLCDSTQMNETGGYCRWVAQMITFTASGCDKAEVSVTPNRHPITDKQLHDMVVRVDTSSMQPIDSTCRFQYILNEL | 4.43 h | – | 4.34 h | 5.02 ± 1.1 h | 3.03 ± 0.58 h | – | 6.01 h | 4.81 h | > 16 h | 4.43 h | 8.64 ± 0.17 h | 4.06 ± 0.19 h
